The target of the assay is tyrosine kinase receptor MET on HeLa cells (UniProt P08581).
Sequence of tyrosine kinase receptor MET on HeLa cells (P08581 25-1390 limits assumed): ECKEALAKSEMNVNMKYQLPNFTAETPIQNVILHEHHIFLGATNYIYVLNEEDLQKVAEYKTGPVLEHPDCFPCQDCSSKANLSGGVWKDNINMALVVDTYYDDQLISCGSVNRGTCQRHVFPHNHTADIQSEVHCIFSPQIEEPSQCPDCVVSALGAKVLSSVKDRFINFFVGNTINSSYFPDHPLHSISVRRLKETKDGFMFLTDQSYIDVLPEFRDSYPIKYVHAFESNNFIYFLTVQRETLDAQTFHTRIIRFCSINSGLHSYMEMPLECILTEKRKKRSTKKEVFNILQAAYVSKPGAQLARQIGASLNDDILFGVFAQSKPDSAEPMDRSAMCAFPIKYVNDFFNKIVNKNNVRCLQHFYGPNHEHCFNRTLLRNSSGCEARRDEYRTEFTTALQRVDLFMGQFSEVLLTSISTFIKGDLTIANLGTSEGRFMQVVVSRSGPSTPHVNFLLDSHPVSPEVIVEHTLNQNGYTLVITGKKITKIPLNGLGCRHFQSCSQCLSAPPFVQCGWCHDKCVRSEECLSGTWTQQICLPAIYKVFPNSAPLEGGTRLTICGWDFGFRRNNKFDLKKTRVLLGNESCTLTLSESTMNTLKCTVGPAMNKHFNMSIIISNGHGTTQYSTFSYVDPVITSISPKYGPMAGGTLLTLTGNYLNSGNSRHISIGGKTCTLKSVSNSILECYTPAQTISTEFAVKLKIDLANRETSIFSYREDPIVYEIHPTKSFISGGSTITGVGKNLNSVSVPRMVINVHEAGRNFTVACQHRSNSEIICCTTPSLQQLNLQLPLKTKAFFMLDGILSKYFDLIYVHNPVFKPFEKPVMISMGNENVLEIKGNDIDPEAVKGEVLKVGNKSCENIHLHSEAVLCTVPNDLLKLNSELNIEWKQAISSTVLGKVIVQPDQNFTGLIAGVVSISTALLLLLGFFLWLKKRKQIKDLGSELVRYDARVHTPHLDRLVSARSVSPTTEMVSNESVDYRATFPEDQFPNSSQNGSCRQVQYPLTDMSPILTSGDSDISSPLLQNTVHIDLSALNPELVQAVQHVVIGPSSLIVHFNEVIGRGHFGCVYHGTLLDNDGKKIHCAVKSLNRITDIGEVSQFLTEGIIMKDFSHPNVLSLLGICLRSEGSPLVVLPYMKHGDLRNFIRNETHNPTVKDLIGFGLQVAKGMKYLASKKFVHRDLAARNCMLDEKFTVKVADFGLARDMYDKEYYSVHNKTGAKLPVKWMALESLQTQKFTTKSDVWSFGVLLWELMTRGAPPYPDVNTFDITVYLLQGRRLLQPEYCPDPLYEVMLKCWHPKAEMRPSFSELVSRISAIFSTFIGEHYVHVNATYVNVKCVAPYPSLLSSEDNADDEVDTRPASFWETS

The substance “Hepatocyte growth factor/scatter factor (HGF/SF) (from UniProt P14210 32-728) (ligand)” showed an EC50 (read off the curve), Akt phosphorylation (P-AKT) [P-AKT] of 30 pM and an EC50 (read off the curve), ERK phosphorylation (P-ERK) [P-ERK] of 20 pM.
